Experimental data reported in US20250326818A1 (UNIVERSIT T BASEL, published 2025).

Experiments:
Assay in all cases: BLI (Octet), biotinylated CD123 ECD captured on streptavidin tips, hIL3 as analyte, level at 250 s normalised to loading
CD123 ECD S59E = biological target: T1, CD123 ECD S59E (human, UniProt P26951 19-305)
T1 construct: Recombinant ECD
T1 sequence: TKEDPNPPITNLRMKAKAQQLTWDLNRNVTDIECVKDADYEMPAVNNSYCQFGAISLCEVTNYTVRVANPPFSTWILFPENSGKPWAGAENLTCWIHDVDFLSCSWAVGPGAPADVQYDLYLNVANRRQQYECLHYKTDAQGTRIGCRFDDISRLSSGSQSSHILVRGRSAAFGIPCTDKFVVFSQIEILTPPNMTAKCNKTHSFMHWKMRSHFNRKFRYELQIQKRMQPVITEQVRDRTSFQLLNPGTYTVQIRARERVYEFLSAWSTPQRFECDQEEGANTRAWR
Method: (§1) Binding of hIL3 (SinoBiological, PN: 11858-H08H) (analyte) to CD123 ECD wt. and variants (ligands) was performed using Streptavidin capture biosensor (SA) (Sartorius, PN: 18-5019). CD123 ECD wt. and variants were biotinylated using Biotinylation kit Type B (Abeam, PN: ab201796) following manufacturer instructions. Biotinylated CD123 ECD wt. and variants (ligands) were captured on SA tips for 1000 s to achieve a nm shift of 1.5 to 2 nm. Analyte hIL3 was titrated at 7 concentrations from 500 to 7.8 nM. Association to analyte was monitored for 300 s and dissociation for 120 s. Buffer only well was used as reference. No regeneration was performed, and a new set of tips was used for each biotinylated captured ligand. Data were analyzed using the Octet Data Analysis software HT 12.0. Due to the fast on/off nature of the interaction data were analyzed using Steady state analysis. Qualitative representation in FIG. 11 binding level were taken at 250 s association for all concentrations.

CD123 ECD S59Y = biological target: T2, CD123 ECD S59Y (human, UniProt P26951 19-305)
T2 construct: Recombinant ECD
T2 sequence: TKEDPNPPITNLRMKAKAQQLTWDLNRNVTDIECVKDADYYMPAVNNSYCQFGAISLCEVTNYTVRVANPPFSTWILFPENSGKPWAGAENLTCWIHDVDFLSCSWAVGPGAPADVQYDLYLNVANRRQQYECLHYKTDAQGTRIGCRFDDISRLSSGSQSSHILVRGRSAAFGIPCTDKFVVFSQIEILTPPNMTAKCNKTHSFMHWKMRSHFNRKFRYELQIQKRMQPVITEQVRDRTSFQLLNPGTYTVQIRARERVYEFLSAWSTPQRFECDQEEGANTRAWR
Method: as §1

CD123 ECD E51T = biological target: T3, CD123 ECD E51T (human, UniProt P26951 19-305)
T3 construct: Recombinant ECD
T3 sequence: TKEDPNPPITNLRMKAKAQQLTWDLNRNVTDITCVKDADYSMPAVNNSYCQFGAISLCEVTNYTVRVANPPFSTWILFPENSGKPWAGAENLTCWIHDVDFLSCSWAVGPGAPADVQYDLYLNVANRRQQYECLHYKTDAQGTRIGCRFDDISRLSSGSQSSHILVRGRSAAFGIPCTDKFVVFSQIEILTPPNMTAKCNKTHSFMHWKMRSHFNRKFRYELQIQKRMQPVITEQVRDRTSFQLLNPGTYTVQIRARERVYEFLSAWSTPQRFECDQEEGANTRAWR
Method: as §1

CD123 ECD R84Q = biological target: T4, CD123 ECD R84Q (human, UniProt P26951 19-305)
T4 construct: Recombinant ECD
T4 sequence: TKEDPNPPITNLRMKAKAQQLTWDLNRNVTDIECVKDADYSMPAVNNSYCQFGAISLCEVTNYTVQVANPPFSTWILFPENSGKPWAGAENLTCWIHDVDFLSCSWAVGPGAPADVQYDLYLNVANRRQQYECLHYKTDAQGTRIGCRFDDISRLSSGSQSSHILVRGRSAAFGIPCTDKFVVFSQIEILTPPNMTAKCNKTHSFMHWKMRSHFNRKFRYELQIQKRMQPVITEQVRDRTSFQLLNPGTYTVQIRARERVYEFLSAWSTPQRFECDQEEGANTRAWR
Method: as §1

CD123 ECD E51K = biological target: T5, CD123 ECD E51K (human, UniProt P26951 19-305)
T5 construct: Recombinant ECD
T5 sequence: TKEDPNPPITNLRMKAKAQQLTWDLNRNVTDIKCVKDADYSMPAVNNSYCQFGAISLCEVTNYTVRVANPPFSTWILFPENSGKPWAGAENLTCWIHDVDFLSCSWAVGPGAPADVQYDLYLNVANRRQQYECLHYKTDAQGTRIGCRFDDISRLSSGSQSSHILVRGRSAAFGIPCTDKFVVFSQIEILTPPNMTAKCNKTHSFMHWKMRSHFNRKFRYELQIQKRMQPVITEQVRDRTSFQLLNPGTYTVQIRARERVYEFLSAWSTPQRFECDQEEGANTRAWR
Method: as §1

CD123 ECD R84T = biological target: T6, CD123 ECD R84T (human, UniProt P26951 19-305)
T6 construct: Recombinant ECD
T6 sequence: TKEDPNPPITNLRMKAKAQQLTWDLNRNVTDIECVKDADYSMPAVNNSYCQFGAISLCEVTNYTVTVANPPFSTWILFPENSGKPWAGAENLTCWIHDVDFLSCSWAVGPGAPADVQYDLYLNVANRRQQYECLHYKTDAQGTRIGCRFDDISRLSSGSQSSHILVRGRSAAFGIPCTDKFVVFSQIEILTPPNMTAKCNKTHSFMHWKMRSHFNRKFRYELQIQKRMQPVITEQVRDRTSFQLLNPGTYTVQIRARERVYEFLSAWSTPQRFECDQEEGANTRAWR
Method: as §1

Measured: binding result

B1: hIL3 (ligand, human, UniProt P08700 20-152, looked up)
chain: APMTQTTPLKTSWVNCSNMIDEIITHLKQPPLPLLDFNNLNGEDQDILMENNLRRPNLEAFNRAVKSLQNASAIESILKNLLPCLPLATAAPTRHPIHIKDGDWNEFRRKLTFYLKTLENAQAQQTTLSLAIF
notes: also called Interleukin-3
binds: all assays above
